The domain aggregation screens of Martell et al. (2025)

assay: soluble fraction after stress (log2 fold change); higher = more stays soluble; pooled small domains, quantitative proteomics; settings: stress: pH 4
How it was run: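 Small protein domains from pooled custom libraries were exposed to pH 4, then quantified with high-throughput quantitative proteomics. The fold change in how much of each domain remains soluble is read as aggregation propensity. It is given as log2, with higher values meaning more stayed soluble.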

Sequence | soluble fraction (log2)
HMTETTTVPKLKGLTKDEAEDAAKSSKIKLEFIDEISKTVEAGVIIKQEKDEGETVNAGDTVKVYVSIGT | -0.0593
HMTEWSIHEVAQRSGVTTRTLRHYDAIGILSPTRTGANGYRYYGPEALVRLQRILLLRDLGLALSDIAE | -1.66
HMTEYFTIESQEGERIDRYLSEELEDKSRSYIQKLIRDGHVLVDGKTVKAGYRLVAGDNIAITLPEI | -0.133
HMTFAPTAIPSLTRPMEELMSWSFTPNEAFILSRINGLWDVRSIAKISPFPEGEVLRVFEKLHDGGLIRW | -1.54
HMTFNEPSPKEIMDYSLSRGYKVDADAFIDFYRGKAKAYGKEGLWLDGRGRLVKDWRAKLRVVWFKDENKL | -1.09
HMTGDIGAEAAKAAALAHAGVTESQTAKMKVDRDWDDGRLEYDVEFDVGRTEYEYTIDGVTGAVLEYEQDI | 0.0208
HMTGDIIKQERKKKNLTQIELAKKVGISRNALINYEAGTRIPPISVQLKLADVLGIDILDLK | -0.0221
HMTGDISRALDQLPADMRTVLILYALEKQRYEDIAQITGVSVGTVKSRLNRARQKLAAILANQREQNE | -0.101
HMTGDNQTIGGGGFHHVAIRAHDFDASVKFYGETLGFREKIAWGEGDKRAIMMDTGDGNYIEIF | -0.0678
HMTGEDIKKVILREYAREKSLLSIFHELSKVNSNVTLEVIKDIITNIDKLPNDLLQYFKEESSFYQKNKN | -1.35
HMTGGIWVQIQGAVERPGVYSLPRDSRLKDLLEAAGGFGRDADTEKVNQAARLEDGAMYRVPRQGEG | 0.164
HMTGGLLVHVAGAVGAPGVVSLPEGARVVDAIEAAGGAREDADTDQLNLARPVVDGEQVRVPVVGEVLE | 0.22
HMTGINMSYEEYKAMADIIVPLIKAGHSPYHIVTNHPELNISEKTLYNYIENGIFREFGLLDINL | -1.91
HMTGIRVYPNPTSSELRFSVATDAALYDATGARLRVVRGSDMMDIRDLASGTYYVRFADGSTQSVVVT | -0.0136
HMTGKLGKIILQPKQTVYGITKKYQISESELRRLNPQLDSHLKIGDEVILPAENIKKFGGNQPVAVS | ≥ 0.43
HMTGKTTLEYLNPLLERGIPVWDYLAKASGKAKEEVQEMVSKGLVPGAEAAKAIADYMGAEFAGSMA | -0.343
HMTGKVKWYDADKGFGFVTEDGGRDVYVRKSALPQGVETLKAGQRLEFGIAEGRRGPQALSVR | -0.0382
HMTGLFSPTEQTRHSKTGATLYSVKLAERIERNAFQSLKKRAKEHDGYYSSFTRSFLFDTPEDAEAFRGT | -0.0888
HMTGMEASLSKLLQGEQFADLRKALIDKGIRKLEAFKRLNLWVFMNRNRLYSIGQRQTVYSTLQRALASE | 0.085
HMTGREIDQLFSVVNDLKAKGVGMVFISHHLDEIARIADSVSVLRDGGFVAEVPASTPEKKLVTLMVGRDI | -0.369
HMTGWINVDKNWYYMNNSGSMARGMINVNNVSYYLDENGKMLSNTTVNVNGTDYRIDASGAMSQI | -0.153
HMTHEIKIKSHSLFASEGTKYQWYLNNIKINDATSQELEITSPGIYKLEMTNFDGDVIEKQIIVGLTNS | -1.52
HMTHHGHSIKRIRDMLGIKQETLAAELNMTQQAFSKLEQKEQIEDEMLDKIAKILHVSTEALKT | -0.459
HMTHPAHLARIGALIRSARQHEGLTQAQLAELLGTSQSAIHRIEQGGQNITLDMLTRISAALDSEIVTIG | -1
HMTHPQVEAYLDDLARMLADIDPGERDDILASVREHLDAEIAAGHGSDAVVNATLLRLGPPEQVAAAARTN | -0.899

Sequence | soluble fraction (log2)
HMTIAFPSNDVDAVVGYFESRGFDRTASISTATVILQQAKIDGVKVFELIDTLQGMDKVQLSYIVTEILN | -0.0582
HMTIATLGERIRKLRKERGLTLAELAGDKLSKGMLSLIENNRAKPSMESLEYIAKRLGVEPAELLE | 0.297
HMTIENTDTFLETLWEQVQRASVDENGIITSRVLIWDEGTKLDEILSWFDKRHSLGALYLQFG | -1.74
HMTIFGWQTDETGKWYRNADGTFFEAGWKEIDGAKYYFDENGYVKTGWLELDGKDYYFDEEGRYDSSKVR | -1.69
HMTIGLLISKARTNSGLTQAELATRAGTSQAAIARYESDRVSPSVSTLERVLRAAGEELVISSS | -0.0184
HMTINPFSTLAVRELEILHYLLNGHRTKEIATNLGLKMNTVSTIKSNIFEKVKADSFTHLLQLAHVHQIS | -0.0952
HMTIQNSILDEIPNIGASRKRAILEAFGSVHRLRKASPEMISAKVEGIGPEMAQAIHDYLVKHPAT | 0.223
HMTISAQAITPRLEVIKNFVLMEEWDAAQTQLEKLRSFTEIWSLDPLFSAMKKKDGQKISDWITGFIKDNM | -1.69
HMTISDEAMQAGRDAFIQALVAMGAEKNADAMASIEKALSADPGNKEYLATRDLIKKSMGMKK | 0.138
HMTISGSDLKAQREALNIPLERIAKETRIRLSILQDLEDEEYSELSSSAQTKGFLRLYADYLSSHKQRLG | 0.0379
HMTITDDETHKVLEEGASRMSEGLTFRDLVDLDRLHLTARGVIQKVLNENRIDADVDTIANMAQKLVARVS | -0.567
HMTKAEVLLDLQQRIISEEFLPGSWLVERDLSSEYGLSRTPIREILNKLVILGLISVQKNRGYQVR | -0.792
HMTKAILTANDVRNGDIVFWTADQRWSTSIDDAAIGYGKDDTDQLADAGKQAEAANTVVGAYLIALR | -1.14
HMTKASEELYFRLKEELGTGVIVEHKKYGEGVVTQLDDRLVHIMFQDDTLRMMDLKILANAGLLKVK | -1.87
HMTKDYVVIYEGLAQTEAVEILGKLQEMGVSAKVDHNDSILVLKDEEDQIRMALATEGYPKS | -0.803
HMTKEEKEKREKYEKLMKKADELVTAKNHKEAVTVLGQAKAYANPQQTKEIEEKIKAQTAELDKG | 0.24
HMTKGVQMFAEQLKRTRQSRHYSQAEIASKLGVTQQAIAKWETGVSTPSPTSISKLSDILGISTDVLLKGA | ≥ 0.43
HMTKIAFPQMLNKYRLQKNLTMEQLAEEVGKTKSTISKWEAGTRSPKIYEIEEIAKYFGVEPQTMMF | -0.548
HMTKINAPMPGNILDVKVNVGDHVEANQLVLMLEAMKMENEIFTPVAGTVVGVHVKKGDSVNSDDLLISI | -1.09
HMTKKEFLDILTESLAGNVPASEIEENIRYYKDYIENGEESEEKALEQLGDPHLIARTIIDSFIA | -1.46
HMTKLLSALQADKFAKKLANDTNFGSNFARMGESAMDFTNRLVEELQRDEGKVANYMPYLTKLGF | -0.305
HMTKLSPKEKSILHIIGDNAGIKSGQIAKRLDIPSPTVKRILSDLVSQNLIEKFGTGPGTNYSI | 0.22
HMTKLTTDERSVYLHIQNKPGVSASSIREALGYKKSKLTSILAQLLEVHKIIDTEGTGKSLKYIL | 0.091
HMTKMTPNRQLVLSVLQSSGKPLSAYELLDRLREQGTQWQPPTAYRALDYLVEQGLAHYLQSIQKYV | -0.317
HMTKNEFLASFQNELQKRHIPDWEDVVSEYEQHFALKQADGFSEEEIAAKLGAPAELAAQFEA | -0.0811
